7 variants from article PMC8571082 (2021) can be followed below.

B1: Mint3NT, N-terminal fragment (1–214) of Mint3 [human] / factor inhibiting HIF-1 (FIH-1), full-length [human] (parent complex)
chain 1: MDFPTISRSPSGPPAMDLEGPRDILVPSEDLTPDSQWDPMPGGPGSLSRMELDESSLQELVQQFEALPGDLVGPSPGGAPCPLHIATGHGLASQEIADAHGLLSAEAGRDDLLGLLHCEECPPSQTGPEEPLEPAPRLLQPPEDPDEDSDSPEWVEGASAEQEGSRSSSSSPEPWLETVPLVTPEEPPAGAQSPETLASYPAPQEVPGPCDHED
chain 2: MAATAAEAVASGSGEPREEAGALGPAWDESQLRSYSFPTRPIPRLSQSDPRAEELIENEEPVVLTDTNLVYPALKWDLEYLQENIGNGDFSVYSASTHKFLYYDEKKMANFQNFKPRSNREEMKFHEFVEKLQDIQQRGGEERLYLQQTLNDTVGRKIVMDFLGFNWNWINKQQGKRGWGQLTSNLLLIGMEGNVTPAHYDEQQNFFAQIKGYKRCILFPPDQFECLYPYPVHHPCDRQSQVDFDNPDYERFPNFQNVVGYETVVGPGDVLYIPMYWWHHIESLLNGGITITVNFWYKGAPTPKRIEYPLKAHQKVAIMRNIEKMLGEALGNPQEVGPLLNTMIKGRYN

This experiment covers variants of B1. The experiment is described as follows: ITC; measured three times for each FIH-1 mutant.
For chain 2 E79A, the dG is -8.7 kcal/mol. With chain 2 D248A, the dG was -9.3 kcal/mol. Turning to chain 2 Y71A, the dG is -8.6 kcal/mol. Consider chain 2 E29A, for which the dG was -9.1 kcal/mol. In the case of chain 2 E250A, the dG was -9 kcal/mol. As for chain 2 K75A, the dG was -8.8 kcal/mol. Regarding chain 2 N171A, the dG was -8.7 kcal/mol.
